The record followed here is publication doi:10.1101/2021.08.02.454737.

Where a chain is given by its changes, count along the chain named.

For one series, the target named is T1, UPF1-3F (wt, UPF1R-3F) (human, UniProt Q92900-2 1-1118).
T1 sequence: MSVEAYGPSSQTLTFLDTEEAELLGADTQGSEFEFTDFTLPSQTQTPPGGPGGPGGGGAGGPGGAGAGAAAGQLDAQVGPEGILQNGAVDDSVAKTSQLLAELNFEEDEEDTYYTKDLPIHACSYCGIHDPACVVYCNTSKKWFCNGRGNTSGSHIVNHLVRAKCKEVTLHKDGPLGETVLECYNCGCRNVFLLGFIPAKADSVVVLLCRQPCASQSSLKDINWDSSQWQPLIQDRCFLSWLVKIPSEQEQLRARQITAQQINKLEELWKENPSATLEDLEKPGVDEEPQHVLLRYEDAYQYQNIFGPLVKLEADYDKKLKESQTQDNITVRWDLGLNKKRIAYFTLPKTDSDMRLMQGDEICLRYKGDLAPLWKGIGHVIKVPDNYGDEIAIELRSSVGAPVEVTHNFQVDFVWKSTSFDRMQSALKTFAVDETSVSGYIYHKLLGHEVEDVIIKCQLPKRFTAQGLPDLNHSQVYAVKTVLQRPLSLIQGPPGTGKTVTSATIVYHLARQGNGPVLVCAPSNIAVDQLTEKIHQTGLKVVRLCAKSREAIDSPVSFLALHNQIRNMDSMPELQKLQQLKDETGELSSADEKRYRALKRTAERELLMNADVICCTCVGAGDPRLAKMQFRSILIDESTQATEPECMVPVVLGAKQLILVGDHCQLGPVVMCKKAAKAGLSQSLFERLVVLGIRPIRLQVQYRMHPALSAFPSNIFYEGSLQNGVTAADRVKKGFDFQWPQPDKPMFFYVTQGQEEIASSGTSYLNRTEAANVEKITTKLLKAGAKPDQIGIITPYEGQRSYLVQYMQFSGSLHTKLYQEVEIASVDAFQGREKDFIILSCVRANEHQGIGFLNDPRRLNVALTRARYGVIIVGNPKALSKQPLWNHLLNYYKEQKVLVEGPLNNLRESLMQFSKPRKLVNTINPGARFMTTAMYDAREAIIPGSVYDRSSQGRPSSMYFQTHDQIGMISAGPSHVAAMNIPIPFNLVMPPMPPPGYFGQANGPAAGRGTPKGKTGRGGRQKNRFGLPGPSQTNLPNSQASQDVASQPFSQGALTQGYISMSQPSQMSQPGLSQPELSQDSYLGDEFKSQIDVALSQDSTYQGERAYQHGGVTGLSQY
Description: MST.

For series [1], the target named is T2, UPF1 RM-3F (RNA mutant, UPF1R RM-3F) (human, UniProt Q92900-2 1-1118, N524A;K547A;R843A).
T2 sequence: T1 sequence with N524A, K547A, R843A
Description: MST.

In the series with UPF1-3F (wt, UPF1R-3F), UUUUUUUUUUUUUUUUUUUUUUUUUUUUUU (ssRNA) [U30 RNA] gave a Kd of 25.3 ± 4.43 nM. The binding result in series [1] is on record as “no binding”.

By Kd is commonly meant the free concentration of one partner at which half of the binding sites on the other are occupied at equilibrium, for simple one-to-one binding. A low value points to higher affinity.
